Experiments:
VEGF165 (human) = assay: SEC-MALS; inhibitor and ligand mixed at molar ratios 5:1 to 1:5 (20 µM and 100 µM), 12 h at ambient temperature; free proteins injected separately; Superose 12 10/300 GL, 10 mM phosphate, 500 mM NaCl, pH 7.0, 0.3 mL/min
PlGF-2 = biological target: T1, PlGF-2 (UniProt P49763); assay: as above
T1 sequence: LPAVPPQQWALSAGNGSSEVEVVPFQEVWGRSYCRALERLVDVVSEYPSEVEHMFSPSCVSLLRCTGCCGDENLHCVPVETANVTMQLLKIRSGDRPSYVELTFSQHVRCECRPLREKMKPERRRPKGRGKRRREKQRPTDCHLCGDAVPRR

FcγRI (human) = FcγRI (human) (UniProt P12314); assay: SPR; His-tagged or myc-myc His-tagged Fcγ receptors captured (about 200 RU) on anti-histidine antibody on a CM4 or CM5 chip; inhibitor with or without equimolar VEGF165 or VEGF121 injected (1 µM in Table 1); Biacore 3000, 25 °C, HBS-T pH 7.4; only kd and t1/2 calculated
Sequence of FcγRI (human) (P12314 16-292): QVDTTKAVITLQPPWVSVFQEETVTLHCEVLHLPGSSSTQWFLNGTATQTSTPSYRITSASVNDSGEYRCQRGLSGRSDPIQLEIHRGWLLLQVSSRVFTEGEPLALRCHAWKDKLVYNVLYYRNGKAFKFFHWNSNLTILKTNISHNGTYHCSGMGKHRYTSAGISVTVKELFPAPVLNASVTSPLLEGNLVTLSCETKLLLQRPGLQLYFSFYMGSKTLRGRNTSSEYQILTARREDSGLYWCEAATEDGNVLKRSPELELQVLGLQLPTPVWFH

FcγRIIIa (176F) (human) = FcγRIIIa (176F) (human) (UniProt P08637); assay: as above
Sequence of FcγRIIIa (176F) (human) (P08637 17-254): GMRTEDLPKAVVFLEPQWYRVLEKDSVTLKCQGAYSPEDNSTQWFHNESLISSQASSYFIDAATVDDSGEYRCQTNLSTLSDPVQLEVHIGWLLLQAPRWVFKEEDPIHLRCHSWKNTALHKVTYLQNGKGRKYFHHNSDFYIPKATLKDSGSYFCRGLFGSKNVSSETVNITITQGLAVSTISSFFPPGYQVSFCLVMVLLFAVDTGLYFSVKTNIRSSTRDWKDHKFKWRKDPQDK

FcγRIIIa (176V) (human) = FcγRIIIa (176V) (human) (UniProt P08637); assay: as above
Sequence of FcγRIIIa (176V) (human) (P08637 17-254 F176V): as the sequence (P08637 17-254) above, with F160V counted along it

FcγRIIIb (human) = FcγRIIIb (human) (UniProt O75015); assay: as above
Sequence of FcγRIIIb (human) (O75015 17-200): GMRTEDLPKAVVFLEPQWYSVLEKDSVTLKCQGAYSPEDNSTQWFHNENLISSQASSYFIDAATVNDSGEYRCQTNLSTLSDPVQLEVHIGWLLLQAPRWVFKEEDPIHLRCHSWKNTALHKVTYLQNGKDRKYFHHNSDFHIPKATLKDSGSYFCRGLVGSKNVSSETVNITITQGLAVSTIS

[1] = biological target: FcγRIIa (131R allele) (human) (UniProt P12318); assay: as above
FcγRIIb (human) = FcγRIIb (human) (UniProt P31994); assay: as above
Sequence of FcγRIIb (human) (P31994 43-217): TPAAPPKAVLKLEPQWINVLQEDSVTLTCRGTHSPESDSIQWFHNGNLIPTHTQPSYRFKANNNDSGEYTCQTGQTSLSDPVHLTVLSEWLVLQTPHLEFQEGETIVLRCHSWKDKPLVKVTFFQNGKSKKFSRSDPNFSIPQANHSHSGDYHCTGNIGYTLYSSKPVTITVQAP

Sequence of aflibercept (Fc fusion) (chain): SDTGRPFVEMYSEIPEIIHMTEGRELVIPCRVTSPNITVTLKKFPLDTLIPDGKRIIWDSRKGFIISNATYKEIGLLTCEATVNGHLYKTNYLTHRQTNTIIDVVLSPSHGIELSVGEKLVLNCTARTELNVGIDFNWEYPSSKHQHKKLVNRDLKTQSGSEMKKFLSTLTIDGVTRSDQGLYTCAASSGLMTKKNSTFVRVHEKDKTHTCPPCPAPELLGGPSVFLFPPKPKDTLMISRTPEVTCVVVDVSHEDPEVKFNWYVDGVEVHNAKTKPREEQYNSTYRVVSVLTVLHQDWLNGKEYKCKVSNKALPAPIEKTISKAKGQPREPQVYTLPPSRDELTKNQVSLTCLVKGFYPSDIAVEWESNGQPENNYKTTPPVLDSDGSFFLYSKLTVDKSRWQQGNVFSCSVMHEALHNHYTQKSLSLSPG

stoichiometry N (VEGF165 (human))	stoichiometry N (aflibercept per PlGF-2 dimer) (PlGF-2)	stoichiometry N (aflibercept per VEGF165 dimer) (VEGF165 (human))	t1/2 (FcγRI (human)) [min]	t1/2 (FcγRIIIa (176F) (human)) [min]	t1/2 (FcγRIIIa (176V) (human)) [min]	t1/2 (FcγRIIIb (human)) [min]	t1/2 [1] [min]	koff (FcγRI (human)) [s⁻¹]	koff (FcγRIIIa (176F) (human)) [s⁻¹]	koff (FcγRIIIa (176V) (human)) [s⁻¹]	koff (FcγRIIIb (human)) [s⁻¹]	koff [1] [s⁻¹]	koff (FcγRIIb (human)) [s⁻¹]	t1/2 (FcγRIIb (human)) [min]	Substance
2															VEGF165 (ligand)
	1	1	16	0.233	1.52	0.0667									aflibercept (Fc fusion)
			16.9	0.317	2.02	0.0833	0.0667								aflibercept:VEGF121 complex
			18.7	0.3	1.88	0.0667	0.05	0.000617	0.0392	0.00614	0.164	0.205	0.174	0.0667	aflibercept:VEGF165 complex
			15.4	0.183	1.43	0.0667	0.1	0.000749	0.0626	0.00803	0.196	0.111	0.179	0.0667	bevacizumab (antibody)
			57			4.42								6.33	bevacizumab:VEGF121 complex
			47.9			7.72								11.8	bevacizumab:VEGF165 complex

Reference: publication PMC4930479
